T1: human ORC1 with C-terminal Flag-HA tag (human, UniProt Q13415 1-861)
T1 construct: Stably expressed in HeLa S3 cells; also called ORC1 FLAG-HA; FLAG-HA tagged ORC1; not shown: in-frame C-terminal Flag-HA tag of pOZ-FH-C
T1 sequence: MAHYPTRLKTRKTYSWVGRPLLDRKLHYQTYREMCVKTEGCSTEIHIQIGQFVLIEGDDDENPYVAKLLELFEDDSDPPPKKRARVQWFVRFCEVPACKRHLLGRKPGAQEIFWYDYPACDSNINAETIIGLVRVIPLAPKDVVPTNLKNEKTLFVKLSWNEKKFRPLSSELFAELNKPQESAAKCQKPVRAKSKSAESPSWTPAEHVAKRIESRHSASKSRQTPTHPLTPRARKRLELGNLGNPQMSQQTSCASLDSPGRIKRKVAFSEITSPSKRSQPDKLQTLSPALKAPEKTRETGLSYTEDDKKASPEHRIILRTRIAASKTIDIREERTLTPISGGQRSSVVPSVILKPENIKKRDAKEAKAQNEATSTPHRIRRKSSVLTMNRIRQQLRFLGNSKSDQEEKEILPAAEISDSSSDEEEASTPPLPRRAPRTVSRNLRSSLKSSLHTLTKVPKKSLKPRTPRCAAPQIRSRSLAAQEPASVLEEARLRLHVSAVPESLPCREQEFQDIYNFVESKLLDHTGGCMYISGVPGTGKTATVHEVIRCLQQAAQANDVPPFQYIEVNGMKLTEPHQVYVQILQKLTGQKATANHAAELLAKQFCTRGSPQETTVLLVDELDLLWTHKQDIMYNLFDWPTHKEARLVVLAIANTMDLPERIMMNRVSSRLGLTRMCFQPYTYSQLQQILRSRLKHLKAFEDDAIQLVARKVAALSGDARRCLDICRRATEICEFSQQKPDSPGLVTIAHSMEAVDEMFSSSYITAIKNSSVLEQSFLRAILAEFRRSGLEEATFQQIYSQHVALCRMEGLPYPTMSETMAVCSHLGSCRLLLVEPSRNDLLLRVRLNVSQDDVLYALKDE

T2: Flag tagged ORC5, O43913
T2 chain: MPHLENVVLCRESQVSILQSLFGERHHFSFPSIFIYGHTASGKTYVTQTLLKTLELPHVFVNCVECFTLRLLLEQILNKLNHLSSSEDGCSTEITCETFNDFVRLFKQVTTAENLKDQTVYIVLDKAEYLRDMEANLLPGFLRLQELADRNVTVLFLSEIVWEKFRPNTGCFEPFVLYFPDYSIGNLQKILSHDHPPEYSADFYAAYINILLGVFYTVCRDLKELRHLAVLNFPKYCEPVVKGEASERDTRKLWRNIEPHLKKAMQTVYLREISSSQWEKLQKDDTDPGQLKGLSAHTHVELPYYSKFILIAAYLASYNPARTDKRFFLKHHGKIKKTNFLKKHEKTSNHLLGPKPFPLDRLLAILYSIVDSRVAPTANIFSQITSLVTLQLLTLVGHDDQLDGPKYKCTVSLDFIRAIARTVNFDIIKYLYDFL

T3: Flag tagged ORC1 (N-terminal Flag, pCS2-Flag)
T3 chain: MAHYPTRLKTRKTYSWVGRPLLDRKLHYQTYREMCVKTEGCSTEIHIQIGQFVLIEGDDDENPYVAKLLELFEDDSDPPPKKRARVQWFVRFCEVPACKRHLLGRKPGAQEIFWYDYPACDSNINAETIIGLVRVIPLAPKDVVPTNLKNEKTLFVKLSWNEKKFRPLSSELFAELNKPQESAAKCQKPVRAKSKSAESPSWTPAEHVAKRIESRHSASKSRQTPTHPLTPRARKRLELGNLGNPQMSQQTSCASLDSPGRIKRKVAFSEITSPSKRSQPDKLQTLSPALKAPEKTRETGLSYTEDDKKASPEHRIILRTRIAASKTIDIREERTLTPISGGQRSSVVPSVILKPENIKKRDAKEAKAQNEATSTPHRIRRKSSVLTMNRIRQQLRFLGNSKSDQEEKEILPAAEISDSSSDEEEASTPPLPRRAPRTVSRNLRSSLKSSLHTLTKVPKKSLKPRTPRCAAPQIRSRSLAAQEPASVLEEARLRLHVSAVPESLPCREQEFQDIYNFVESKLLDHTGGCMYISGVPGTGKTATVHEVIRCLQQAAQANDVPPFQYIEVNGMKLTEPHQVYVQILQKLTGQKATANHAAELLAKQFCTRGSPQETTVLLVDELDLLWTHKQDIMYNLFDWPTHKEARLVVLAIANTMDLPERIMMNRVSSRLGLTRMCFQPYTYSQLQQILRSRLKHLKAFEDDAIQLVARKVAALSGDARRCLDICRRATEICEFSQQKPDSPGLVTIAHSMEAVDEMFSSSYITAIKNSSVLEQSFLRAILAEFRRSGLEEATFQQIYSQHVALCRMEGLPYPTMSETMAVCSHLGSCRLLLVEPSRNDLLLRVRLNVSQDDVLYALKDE

T4: Flag tagged ORC3, Q9UBD5
T4 chain: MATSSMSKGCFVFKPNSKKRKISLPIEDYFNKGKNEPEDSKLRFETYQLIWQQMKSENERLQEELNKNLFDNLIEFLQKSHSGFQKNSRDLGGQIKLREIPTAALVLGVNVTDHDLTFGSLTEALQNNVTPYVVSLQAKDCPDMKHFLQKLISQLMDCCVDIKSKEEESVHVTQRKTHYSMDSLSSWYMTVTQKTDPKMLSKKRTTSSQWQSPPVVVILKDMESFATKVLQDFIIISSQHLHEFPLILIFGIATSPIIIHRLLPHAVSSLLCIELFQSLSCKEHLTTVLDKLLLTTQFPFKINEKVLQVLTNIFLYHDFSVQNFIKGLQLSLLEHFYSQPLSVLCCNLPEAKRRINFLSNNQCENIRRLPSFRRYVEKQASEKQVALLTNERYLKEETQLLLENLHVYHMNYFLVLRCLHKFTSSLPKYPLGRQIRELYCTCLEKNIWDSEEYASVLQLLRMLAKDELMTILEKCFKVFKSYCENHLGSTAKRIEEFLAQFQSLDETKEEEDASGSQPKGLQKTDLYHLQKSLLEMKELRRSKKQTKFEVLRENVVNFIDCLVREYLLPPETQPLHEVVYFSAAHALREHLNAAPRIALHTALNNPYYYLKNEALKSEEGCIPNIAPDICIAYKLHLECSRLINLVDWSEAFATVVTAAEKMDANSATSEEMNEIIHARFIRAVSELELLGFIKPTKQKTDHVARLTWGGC


How the values were obtained:
[1] = target: T1, human ORC1 with C-terminal Flag-HA tag; experiment: TAP-TAG (tandem Flag/HA immunoprecipitation from HeLa S3 nuclear extract), silver staining and mass spectrometry
Experimental: The beads were washed twice with 1 mL of HA-IP Buffer (150 mM KCl; 20 mM Tris pH 7.5 0.05% NP40; 0.1% Tween; 10% Glycerol; 5 mM MgCl₂; 1 mM DTT and 10 mM PMSF). After the last centrifugation, beads were resuspended in HA-IP Buffer (1 vol of Beads). Extracts were incubated with Flag beads for 4 h with agitation at 4 C. Beads were pelleted (3 min at 3000 rpm 4° C.). Beads were washed 5 times with HA IP Buffer: Beads are pelleted (3K 3 min 4° C.) and the supernatant discarded. Complexes were eluted from the beads by incubating in 3 beads volume of HA IP Buffer supplemented with Flag peptide (200 μg/mL, Sigma) for 1 hour at 4 C with agitation. The supernatant was kept on ice and a second elution was conducted. The eluates were pooled and subjected to an anti-HA immunoprecipitation. Before, anti-HA coupled agarose beads (SantaCruz Biotechnology) were washed with glycine buffer as described above. 10 μL of beads was used per IP. Flag eluates were incubated with anti-HA beads for 2 hours at 4 C with agitation. Beads were pelleted (3 min at 3000 rpm 4° C.). Beads were washed 5 times with HA IP Buffer: Beads are pelleted (3K 3 min 4° C.) and the supernatant discarded. Complexes were eluted from the beads by incubating in 3 beads volume of HA IP Buffer supplemented with HA peptide (400 μg/mL, Roche) for 1 hour at 4 C with agitation. The supernatant was keep on ice and a second elution was conducted. […]

Flag tagged ORC5, O43913 = target: T2, Flag tagged ORC5, O43913
[2] = target: T3, Flag tagged ORC1 (N-terminal Flag, …)
Flag tagged ORC3, Q9UBD5 = target: T4, Flag tagged ORC3, Q9UBD5

Binder | binding result [1] | poly-ubiquitination of Flag ORC5 after siRNA knockdown of Obi1 (Flag tagged ORC5, O43913) | ubiquitination of Flag tagged ORC subunits (HA-ubiquitin adducts after anti-Flag IP) (Flag tagged ORC5, O43913) | ubiquitination of Flag tagged ORC subunits (HA-ubiquitin adducts after anti-Flag IP) [2] | poly-ubiquitination of Flag ORC3 after siRNA knockdown of Obi1 (Flag tagged ORC3, Q9UBD5) | ubiquitination of Flag tagged ORC subunits (HA-ubiquitin adducts after anti-Flag IP) (Flag tagged ORC3, Q9UBD5) | polyubiquitination of Flag-ORC5 (HA-ubiquitin adducts after anti-Flag IP) (Flag tagged ORC5, O43913) | ubiquitination of Flag-ORC5 (high-molecular weight ubiquitin adducts after anti-Flag IP) (Flag tagged ORC5, O43913)
ORC Ubiquitin-ligase 1 (OBI1), human, endogenous protein of the cells (enzyme, Untagged endogenous Obi1 of HeLa S3 or U2OS cells, co-purified with tagged baits or acting on transfected ORC subunits; also called RNF219; Obi1/RFN219) MAQTVQNVTLSLTLPITCHICLGKVRQPVICINNHVFCSICIDLWLKNNSQCPACRVPITPENPCKEIIGGTSESEPMLSHTVRKHLRKTRLELLHKEYEDEIDCLQKEVEELKSKNLSLESQIKTILDPLTLVQGNQNEDKHLVTDNPSKINPETVAEWKKKLRTANEIYEKVKDDVDKLKEANKKLKLENGGLVRENLRLKAEVDNRSPQKFGRFAVAALQSKVEQYERETNRLKKALERSDKYIEELESQVAQLKNSSEEKEAMNSICQTALSADGKGSKGSEEDVVSKNQGDSARKQPGSSTSSSSHLAKPSSSRLCDTSSARQESTSKADLNCSKNKDLYQEQVEVMLDVTDTSMDTYLEREWGNKPSDCVPYKDEELYDLPAPCTPLSLSCLQLSTPENRESSVVQAGGSKKHSNHLRKLVFDDFCDSSNVSNKDSSEDDISRSENEKKSECFSSPKTGFWDCCSTSYAQNLDFESSEGNTIANSVGEISSKLSEKSGLCLSKRLNSIRSFEMNRTRTSSEASMDAAYLDKISELDSMMSESDNSKSPCNNGFKSLDLDGLSKSSQGSEFLEEPDKLEEKTELNLSKGSLTNDQLENGSEWKPTSFFLLSPSDQEMNEDFSLHSSSCPVTNEIKPPSCLFQTEFSQGILLSSSHRLFEDQRFGSSLFKMSSEMHSLHNHLQSPWSTSFVPEKRNKNVNQSTKRKIQSSLSSASPSKATKS | binds | cells that does not express Obi1 are not able to poly-ubiquitinate either ORC3 or ORC5 | OC1, ORC3 and ORC5 are ubiquitinated in presence of Obi1, and in particular that ORC3 and ORC5 show strong polyubiquitylation | OC1, ORC3 and ORC5 are ubiquitinated in presence of Obi1 | cells that does not express Obi1 are not able to poly-ubiquitinate either ORC3 or ORC5 | OC1, ORC3 and ORC5 are ubiquitinated in presence of Obi1, and in particular that ORC3 and ORC5 show strong polyubiquitylation |  | 
human Myc6-tagged Obi1 WT (protein) MAQTVQNVTLSLTLPITCHICLGKVRQPVICINNHVFCSICIDLWLKNNSQCPACRVPITPENPCKEIIGGTSESEPMLSHTVRKHLRKTRLELLHKEYEDEIDCLQKEVEELKSKNLSLESQIKTILDPLTLVQGNQNEDKHLVTDNPSKINPETVAEWKKKLRTANEIYEKVKDDVDKLKEANKKLKLENGGLVRENLRLKAEVDNRSPQKFGRFAVAALQSKVEQYERETNRLKKALERSDKYIEELESQVAQLKNSSEEKEAMNSICQTALSADGKGSKGSEEDVVSKNQGDSARKQPGSSTSSSSHLAKPSSSRLCDTSSARQESTSKADLNCSKNKDLYQEQVEVMLDVTDTSMDTYLEREWGNKPSDCVPYKDEELYDLPAPCTPLSLSCLQLSTPENRESSVVQAGGSKKHSNHLRKLVFDDFCDSSNVSNKDSSEDDISRSENEKKSECFSSPKTGFWDCCSTSYAQNLDFESSEGNTIANSVGEISSKLSEKSGLCLSKRLNSIRSFEMNRTRTSSEASMDAAYLDKISELDSMMSESDNSKSPCNNGFKSLDLDGLSKSSQGSEFLEEPDKLEEKTELNLSKGSLTNDQLENGSEWKPTSFFLLSPSDQEMNEDFSLHSSSCPVTNEIKPPSCLFQTEFSQGILLSSSHRLFEDQRFGSSLFKMSSEMHSLHNHLQSPWSTSFVPEKRNKNVNQSTKRKIQSSLSSASPSKATKS |  |  |  |  |  |  | only the full length Obi1 protein is able to polyubiquitinate ORC5 | both human and xenopus Obi1, sharing 35% identity of their amino acid sequence, are able to ubiquitinate ORC5

— US20160122742A1 (published 2016)
